Some results are limits rather than exact numbers.

Experiment [1] has as its target eGFP-CaMKII (UniProt P11275). The experiment can be described thus: number and brightness.
The target of experiment [2] is nonlabeled αCaMKII (Ca2+/CaM-dependent protein kinase II, alpha) (UniProt P11275). Kind of experiment: number and brightness.

For “eGFP-CaMKII (from UniProt P11275 1-478) (enzyme)”, the stoichiometry N – broadly, a count of units in the complex or per binding partner – in experiment [1] is over 3.
In the case of “enhanced green fluorescent protein (eGFP)-CaM (from UniProt P0DP23 1-149) (natural protein)”, the molecular brightness, times that of eGFP (times that of eGFP) in experiment [2] came to 3.
